# Legend:
# [1] = biological target: T1, sCoV2-RBD (Fc-tagged RBD of SARS-CoV-2 S protein) (SARS-CoV-2; human, UniProt P0DTC2 319-541); experiment: ELISA titration on coated sCoV2-RBD
# [2] = biological target: T2, sCoV-RBD (Fc-tagged RBD of SARS-CoV S protein) (SARS-CoV; human, UniProt P59594 306-527); experiment: phage ELISA, scFv on phage
# [3] = biological target: SARS-CoV-2 RBD protein (Sino Biological, Cat: 40592-V08B) (SARS-CoV-2, UniProt P0DTC2 319-541); experiment: BLI (Octet), mAb on Protein A sensor
# [4] = biological target: S protein of SARS-CoV (SARS-CoV, UniProt P59594 14-1195); experiment: ELISA, purified IgG1 on coated S protein
# [5] = biological target: T1, sCoV2-RBD (Fc-tagged RBD of SARS-CoV-2 …); experiment: BLI (Octet) blocking of ACE2 binding to captured sCoV2-RBD
# [6] = biological target: SARS-CoV-2 S protein on live SARS-CoV-2-mNG reporter virus (SARS-CoV-2, UniProt P0DTC2 14-1273); experiment: cell-based or functional assay
# [7] = biological target: T2, sCoV-RBD (Fc-tagged RBD of SARS-CoV S …); experiment: ELISA, purified IgG1 on coated RBD protein
Binder,EC50 [1] [nM],binding result [2],binding result [4],also measured
"CoV2-23 (antibody, V domains shown) VH: QVQLVESGGGLVQPGRSLRLSCAASGFTFDDYAMHWVRQAPGKGLEWVSGISWNSGSIGYADSVKGRFTISRDNAKNSLYLQMNSLRAEDTALYYCAKDMDIWFGGGLDYWGQGTLVSVSS VL: DVQMTQSPSSVSASVGDRVTITCRASEGIGNWLAWYQQKPGKAPKLLIYEASSLQSGVPSRFSGSGSGADFTLTISSLQPEDFGTYYCLQANSFPITFGRGTKLEIK",1.04,–,–,–
"07 (antibody, V domains shown, also called CoV2-07; phage clone 07) VH: EVQLVESGGGVFQPGRSLRLSCAASGFTFSDFGMHWVRQAPGKGLEWVAVTSHDGSSKFYADSVKGRFTVSRDNSKNKLYLEMNSLRVEDSAVYYCAKDSDNGYDADFFDYWGQGTLVTVSS VL: not shown",–,no binding,–,–
"CoV2-05 (antibody, V domains shown) VH: EVQLVESGGGVARPGGSLRLSCAASGFTFDDYGMSWVRQVPGKGLEWVAGINWNGERIGYADSVKGRFTISRDNAKNSLYLQMNSLRAEDTALYYCARPSGDYVAWYFNLWGRGTLVTVSS VL: QAALTQPRSVSGSPGQSVTISCTGTGSDVGPYKYVSWYQQHPGKAPKLMIYDVNERPSGVPDRFSGSKSGNTASLTISGLQAEDEADYYCGSYAGNNKWVFGGGTKLTVL",7.82,no binding,"no binding (tested: one concentration, not printed)",Kd [3]: 7.16 nM; koff [3]: 0.000602 s⁻¹; kon [3]: 84100 M⁻¹ s⁻¹; IC50 [5]: 4.18 µg/mL
"CoV2-13 (antibody, V domains shown) VH: QVQLQQSGAEVKKPGSSVKVSCKASGGNFRSHTFSWVRQAPGQGLEWMGEIMPRFGATNYAQKFQGRVTITADESTGTTYMELSSLKSHDTAVYFCAADLGSGRKFDSWAQGTLVSVSS VL: NIQMTQSPSSLSASVGDRVTITCRASQGIGSDLGWYQQRPGKAPKRLIYAASSLQSGVPSRFSGSGSGTEFTLTISSLQPEDFATYYCLQHNSYPLTFGQGTKVEIK",0.17,–,–,Kd [3]: 50.7 nM; koff [3]: 0.00103 s⁻¹; kon [3]: 20300 M⁻¹ s⁻¹; IC50 [5]: 2.29 µg/mL
"CoV2-24 (antibody, V domains shown) VH: QVQLHQWGAGLLKPSETLSRTCAVYGGSFSGYYWTWIRQAPGKGLEWIGEINHGGSTRYNPSLESRVSISVDTSKKQFSLELRSVTAADTAIYYCARGLVGGGAFDIWGQGTMVTVSS VL: NFMLTQPSSVSVAPGQTARITCGGDNIGSTGVHWYQQKPGQAPVLVVYDDTDRPSGIPERFSGSKSGNTAALTISGVEAGDEADFYCQVWDSSGHSYVFGTGTKVTVL",29.7,no binding,"no binding (tested: one concentration, not printed)",–
"CoV2-06 (antibody, V domains shown) VH: QVELQESGPGLVKPSGTLSLTCAVSGGSISSNNWWTWVRQPPGKGLEWIGEIHHSGGTNYNPSLKSRVTMSVDKSKNQFSLNLYSVTAADTAVYYCTRDRAGGTYSGFDFWGQGTLVTVSS VL: QAVVTQPASVSGSPGQSITISCTGTSSDVGGYNYVSWYQQHPGKAPKLMIYDVSNRPSGVSNRFSGSKSGNTASLTISGLQAEDEADYYCSSYTSSSTVVFGGGTKVTVL",–,–,–,"NC50 (neutralisation of reporter SARS-CoV-2, Vero E6 cells) [6]: 0.15 µg/mL"
"CoV2-28 (antibody, V domains shown) VH: not shown VL: QAVVTQPASVSGSPGQSITISCTGTSSDVGGYNYVSWYQQHPGKAPKLMIYDVSNRPSGVSNRFSGSKSGNTASLTISGLQAEDEADYYCNSYTRSSTSVFGTGTQLTVL",130,no binding,"no binding (tested: one concentration, not printed)",–
"CoV2-09 (antibody, V domains shown) VH: QVQLHQWGAGLLKPSETLSRTCAVYGGSFSGYYWTWIRQAPGKGLEWIGEINHGGSTRYNPSLESRVSISVDTSKKQFSLELRSVTAADTAIYYCARGYDTNWYGDGYNWFDPWDRGTLVTVSS VL: QSALTQDPSVSVALGQTVRITCQGDSLRGSFASWYRQKPGQAPVLVIFGINNRPSGVPDRFSGSSSGNTASLTITGAQAEDEADYYCNSRESNSNRILFGGGTKVTVL",–,–,–,"NC50 (neutralisation of reporter SARS-CoV-2, Vero E6 cells) [6]: 0.66 µg/mL"
"CoV2-16 (antibody, V domains shown) VH: QVQLHQWGAGLLKPSETLSRTCAVYGGSFSGYYWTWIRQAPGKGLEWIGEINHGGSTRYNPSLESRVSISVDTSKKQFSLELRSVTAADTAIYYCARGYDTNWYGDGYNWFDPWDRGTLVTVSS VL: QAVVTQPPSVSGTPGQRVTISCSGSSSSIGSNTVHWYQHLPGTAPKLLMYNNNERPSGVPARFSGSKSGTSASLVITGLQADDEAEYYCQSYDTGLSGHVFGSGTELTVL",–,–,–,"NC50 (neutralisation of reporter SARS-CoV-2, Vero E6 cells) [6]: 0.82 µg/mL"
"CoV2-34 (antibody, V domains shown) VH: QVQLHQWGAGLLKPSETLSRTCAVYGGSFSGYSWTWIRQAPGKGLEWIGEVNHGGKTNYNPSLESRLSISVDTSKNQFSLELRSVTAADTAVYYCARGYDTNWYGDGYNWFDPWGQGTLVSVSS VL: DIQMTQSPSSLSASVGDRVTITCRASQKIDNFLNWYQQKPGKAPKLLIHGASNLQGGVSSRFSGSRSGTDFTLTITNLQPEDFATYYCQQSYNTPITFGQGTRLEIK",6.67,–,"no binding (tested: one concentration, not printed)","binding result [7]: no binding (tested: one concentration, not printed)"
"CoV2-31 (antibody, V domains shown) VH: QVQLQQWGAGLLKPSETLSRTCAVYGGSFSGYSWTWIRQAPGKGLEWIGEINHGGSTNYNPSLESRVSISVDTSKKQFSLELRSVTAADTAVYYCARGYDTNWYGDGYNWFDPWGQGTLVTVSS VL: QAVVTQPLSVSVALGQTAKIPCGGNNIGRKSVHWYQQKPGQAPVLVIYRDNNRPSGIPERFSGSNSGNTATLTISRAQAGDEADYYCQVWDSNTGVFGTGTKVTVL",58.1,–,"no binding (tested: one concentration, not printed)","binding result [7]: no binding (tested: one concentration, not printed)"
"CoV2-26 (antibody, V domains shown) VH: not shown VL: QSALTQPPSASGTPGQRVTISCSGSSSNIGSNSVNWYQQVPGTAPKLLIYANDHRPSGVPDRFSGSKSGTSASLAISGLQSEDEADYYCAAWDNSLKGVVFGGGTKVTVL",–,–,–,"NC50 (neutralisation of reporter SARS-CoV-2, Vero E6 cells) [6]: 0.41 µg/mL"
"CoV2-03 (antibody, V domains shown) VH: QVQLVESGAEMKKPGASVKVSCKTSGYTFTNSYIHWVRQAPGQGLEWMGWINPISGGTNYAQKFQGRVTMTRDTSINTAYMELSRLRSDDTAVYYCARDRGDYDYGWGTSPFYFDYWGQGTLVTVSS VL: not shown",3.35,no binding,"no binding (tested: one concentration, not printed)",IC50 [5]: 14.8 µg/mL
"CoV2-19 (antibody, V domains shown) VH: QVQLVQSGAEMKKPGASVKVSCKTSGYTFTNSYIHWVRQAPGQGLEWMGWINPISGGTNYAQKFQGRVTMTRDTSINTAYMELSRLRSDDTAVYYCARDRGDYDYGWGTSPFYFDYWGQGTLVTVSS VL: AIQLTQSPSSLSASVGDRVTITCRTSHTVNSYLNWYQQEPGKAPKLLIYAASNLQSGVPSRFSGSGSGTDFSLTIHNLQPEDFATYYCQQSYRTPLTFGQGTKVDIK",5.02,no binding,"no binding (tested: one concentration, not printed)",Kd [3]: 138 nM; koff [3]: 0.00137 s⁻¹; kon [3]: 9870 M⁻¹ s⁻¹; IC50 [5]: 14.5 µg/mL
"CoV2-02 (antibody, V domains shown) VH: QVQMVQSGAEMKKPGASVKVSCKTSGYTFTNSYIHWVRQAPGQGLEWMGWINPISGGTNYAQKFQGRVTMTRDTSINTAYMELSRLRSDDTAVYYCARDRGDYDYGWGTSPFYFDYWGQGTLVSVSS VL: AIQMTQSPSSLSASVGDRVTITCRASQPISKYLNWYQQKPGKAPKLLIYAASSLQSGVPSSFSGSGFGTDFTLTISNLQPEDFATYYCQQSNGIPLTFGGGTKVDIK",0.47,no binding,"no binding (tested: one concentration, not printed)",Kd [3]: 7.85 nM; koff [3]: 0.000499 s⁻¹; kon [3]: 63500 M⁻¹ s⁻¹; IC50 [5]: 17.7 µg/mL
"CoV2-22 (antibody, V domains shown) VH: QVQLVQSGAEMKKPGASVKVSCKTSGYTFTNSYIHWVRQAPGQGLEWMGWINPISGGTNYAQKFQGRVTMTRDTSINTAYMELSRLRSDDTAVYYCARDRGDYDYGWGTSPFYFDYWGQGTLVTVSS VL: DVQMTQSPSSLSASVGDRVTITCRASQSISSYLNWYQQKPGKAPKLLIYGASSLESGVPSRFSGGGSGTDFTLTISSLQPEDFASYYCQQSYSIPFTFGPGTTVDIK",3.41,no binding,"no binding (tested: one concentration, not printed)",–
"CoV2-14 (antibody, V domains shown) VH: EVQLQQSGPGLVKPSQTLSLTCAISGDSVSSNSAAWNWIRQSPSRGLEWLGRTYYRSKWYNDYAVSVKSRITINPDTSKNQFSLQLNSVTPEDTAVYYCAREEQQLVHDYYYYGMDVWGQGTMVTVSS VL: QAVVTQPASVSGSPGQSITISCTGTSSDIGAYNYISWYQQHPGKAPKLIIYEVSNRPSGISYRFSGSKSGNTASLTISGLQAEDEANYYCSSYAGSISFGGGTKVTVL",–,–,–,"NC50 (neutralisation of reporter SARS-CoV-2, Vero E6 cells) [6]: 0.46 µg/mL"

# Source: patent publication US20230399384A1 (University of Texas, published 2023)
